# Test results: patent publication US20130018172A1, “Metal Abstraction Peptide and Uses Thereof” (Echogen, Inc., priority 2011, published 2013)
# Numbering of substitutions follows the chain as printed. Names and notes keep the numbering of the source.
# B1: PRL-1: recombinant human PRL-1 (phosphatase of regenerating liver) wild type, C-terminal NCC motif (protein, UniProt Q93096 1-170, looked up)
# Protein tyrosine phosphatase …: MARMNRPAPVEVTYKNMRFLITHNPTNATLNKFIEELKKYGVTTIVRVCEATYDTTLVEKEGIHVLDWPFDDGAPPSNQIVDDWLSLVKIKFREEPGCCIAVHCVAGLGRAPVLVALALIEGGMKYEDAVQFIRQKRRGAFNSKQLLYLEKYRPKMRLRFKDSNGHRNNC
# B2: Apo PRL-1: PRL-1 without bound metal (protein, UniProt Q93096 1-170, looked up)
# Protein tyrosine phosphatase …: B1 Protein tyrosine phosphatase …
# modifications: metal-free
# B3: PRL-1-C170S: PRL-1 mutant, cysteine 170 replaced by serine (protein, UniProt Q93096 1-170, looked up, variant C170S)
# Protein tyrosine phosphatase …: B1 Protein tyrosine phosphatase … with C170S
# B4: PRL-1-H166A: PRL-1 mutant, histidine 166 of the NGH motif replaced by alanine (protein, UniProt Q93096 1-170, looked up, variant H166A)
# Protein tyrosine phosphatase …: B1 Protein tyrosine phosphatase … with H166A
# Tests used:
# [1] = ICP-MS of metal bound to purified PRL-1 variants (Ni); type: binding; conditions: for Ni bound, ICP-MS: PRL-1 variants purified on Ni-IMAC, analyzed in parallel
# Protocol: Because the histidine mutant retained tight binding, mutations at C170 and/or C171 were made.
# (§1) ICP-MS was used to characterize the bound metal. Purified protein samples were digested in concentrated nitric acid in PFA microcentrifuge tubes (Savillex, #s 7240, 7241) at 68±1° C. for 16.5±0.7 hours. Based on protein quantification prior to digestion, the sample was then diluted to 1.5 μM in 20 mM ammonium bicarbonate, pH 8.2, filtered through a 0.2 μm nylon filter, and injected into a VG Elemental VGII+XS Inductively-Coupled Plasma-Mass Spectrometer fitted with a microconcentric nebulizer. A minimum of two separately prepared samples were analyzed for each protein variant. Each sample was scanned twice and standards were run before, between, and after each sample scan. Drift was monitored during washes between scans of both sample and standard injections.
# To confirm that the chromophore arises from protein abstraction of the metal from the charged IMAC matrix, samples were subjected to ICP-MS for semi-quantitative analysis. As extensive washing is used to remove background metals, the values obtained from this method inherently underestimate the amount of metal bound, but can be used to assess the relative affinity of different metals for the protein. Additionally, to identify an endogenous metal ligand that may have been bound to PRL-1 during expression in the cells, ICP-MS was used to look for the presence of a transition metal from the first two rows in the periodic table as well as other common biologically relevant metals. […] On average 500 μM Ni-purified protein samples were digested in nitric acid for 16 h at 70° C. were determined to contain approximately 180 μM Ni, yielding a Ni to protein stoichiometry of 1:2.7+/−0.7. Zn was also detected in the Ni-purified samples at approximately 60 μM. […] Because ICP-MS analysis is conducted in a flow of Ar and the most abundant isotope of Ar has the same mass as Ca, Ca binding cannot be determined from the primary mass signal. Nonetheless, because a much higher amount of Ca was present in the cell culture media compared to Zn and yet the ICP-MS signal corresponds largely to zinc, the protein is unlikely to bind calcium.
# [2] = ICP-MS of metal bound to purified PRL-1 (Zn); type: binding
# Protocol: as §1
# To confirm that the chromophore arises from protein abstraction of the metal from the charged IMAC matrix, samples were subjected to ICP-MS for semi-quantitative analysis. […] On average 500 μM Ni-purified protein samples were digested in nitric acid for 16 h at 70° C. were determined to contain approximately 180 μM Ni, yielding a Ni to protein stoichiometry of 1:2.7+/−0.7. Zn was also detected in the Ni-purified samples at approximately 60 μM. […] Because ICP-MS analysis is conducted in a flow of Ar and the most abundant isotope of Ar has the same mass as Ca, Ca binding cannot be determined from the primary mass signal. […]
# [3] = Metal displacement from Ni-purified PRL-1 (EDTA exchange, guanidinium hydrochloride and heat); type: physicochemical
# Protocol: UV-Vis absorption spectra were used to measure the concentration of the PRL-1 protein. The concentrations of purified PRL-1 analogs were measured at 280 nm and calculated using an extinction coefficient of 19420 M^−1 cm^−1. Because of possible metal-protein absorption interferences in the high 200 nm region, the validity of the UV-Vis quantification method was confirmed by the Bradford method. Spectra of PRL-1 analogs at concentrations of 10, 5, 2.5, and 1.25 mg/mL were collected on a Cary 100 UV-Vis spectrophotometer from 800 to 200 nm. […] The resulting spectra were resolved and peak positions were evaluated using GRAMS/AI 7.00 software. Three methods were aimed at metal displacement. In the first, PRL-1-WT (e.g., wild type) samples were reduced using 20 mM β-mercaptoethanol (BME), and imidazole was added to a concentration of 10 mM. For 0.5 mM protein samples, this corresponds to 400-fold solution excess of BME to compete with the two C-terminal cysteine thiols and a 200-fold solution excess of imidazole to compete with the single C-terminal histidine imidazole side chain. New baselines were taken and the spectra recalculated. In the second method, baselines were recalculated for buffer containing 100 μM EDTA, and the spectrum for the PRL-1-WT sample that was exchanged ten million fold in 100 μM EDTA was recorded. Finally, 10 mg/mL protein samples were denatured in 5.6 M guanidinium hydrochloride and heated to 90° C., new baselines were taken, and the spectra were collected at 0, 2, 4 and 6 hrs.
# Ni binding in PRL-1 was not affected by reduction of the disulfide bond at PRL-1's active site. […] Subtraction of the reduced spectrum from the oxidized confirms that there was no significant difference in metal coordination between the reduced and oxidized WT samples. To examine whether a small contribution from a His is made, additional imidazole was added to the solution to increase the signal strength of a transient association. […] Additionally, no spectral change was observed when the Ni-purified sample was reduced in the presence of imidazole. […]
# [4] = Solubility of PRL-1 on loss of metal; type: physicochemical; conditions: metal-free protein
# [5] = UV-Vis absorption spectroscopy of Ni coordination by PRL-1 variants; type: binding; conditions: relative to wild-type, Ni-purified
# Protocol: UV-Vis absorption spectra were used to measure the concentration of the PRL-1 protein. The concentrations of purified PRL-1 analogs were measured at 280 nm and calculated using an extinction coefficient of 19420 M^−1 cm^−1. Because of possible metal-protein absorption interferences in the high 200 nm region, the validity of the UV-Vis quantification method was confirmed by the Bradford method. Spectra of PRL-1 analogs at concentrations of 10, 5, 2.5, and 1.25 mg/mL were collected on a Cary 100 UV-Vis spectrophotometer from 800 to 200 nm. […] The resulting spectra were resolved and peak positions were evaluated using GRAMS/AI 7.00 software. Three methods were aimed at metal displacement. […] In the second method, baselines were recalculated for buffer containing 100 μM EDTA, and the spectrum for the PRL-1-WT sample that was exchanged ten million fold in 100 μM EDTA was recorded. […]
# Accordingly, characterization of metal coordination by PRL-1 was determined with UV-Vis absorption spectroscopy. The metal coordination geometry employed by PRL-1 and its mutants was analyzed using UV-Vis absorption spectroscopy at 800-200 nm. Absorption spectra of PRL-1 produced peaks at 280 and 220 nm, which arise from aromatic and peptide bonds within the protein and correspond well with the concentration determined using the Bradford assay. […]
molecule,measurement,setting,value
B1,"Ni bound, ICP-MS",[1],approximately 120 μM
same,"Ni level in Zn-IMAC purified protein, ICP-MS",[1]; Zn-IMAC purified,only background levels
same,"Ni content of Ni-purified protein samples, ICP-MS","[1]; on average 500 μM Ni-purified protein, digested in nitric acid 16 h at 70° C., semi-quantitative",approximately 180 μM
same,"Zn detected in Ni-purified samples, ICP-MS",[2]; Ni-IMAC purified,approximately 60 μM
same,"Zn content after Zn-IMAC purification, ICP-MS",[2]; Zn-IMAC purified,270 µM
same,"loss of peaks at 318, 421 and 526 nm (Ni release)",[3]; 5.6 M guanidinium hydrochloride at 90° C.,only gradually disappeared over 6 hrs
same,reversibility of Ni binding,[3]; pH 7.4,irreversible
same,effect of EDTA exchange on the absorption spectrum,[3]; ten million-fold exchange into buffer containing 100 μM EDTA,little effect on the spectrum
B2,solubility,[4],poorly soluble
B3,"Ni bound, ICP-MS",[1],No Ni was detected
B4,"Ni bound, ICP-MS",[1],~60 µM
same,decrease in signal measured by absorption spectroscopy,[5],20%
